Molecular target: the molecule itself
Test: crystal structure; AAC(2′)-Ia at 10 mg/mL with 10 mM acetyl-CoA and 10 mM plazomicin, sitting-drop vapor diffusion at 4 °C, reservoir 0.2 M LiCl and 40% (v/v) MPD; product-bound state (acetylated plazomicin and CoA)

B1: AAC(2′)-Ia from Providencia stuartii (enzyme)
chain: MGIEYRSLHTSQLTLSEKEALYDLLIEGFEGDFSHDDFAHTLGGMHVMAFDQQKLVGHVAIIQRHMALDNTPISVGYVEAMVVEQSYRRQGIGRQLMLQTNKIIASCYQLGLLSASDDGQKLYHSVGWQIWKGKLFELKQGSYIRSIEEEGGVMGWKADGEVDFTASLYCDFRGGDQW
notes: AAC(2′)-Ia, aminoglycoside 2′-N-acetyltransferase of Providencia stuartii; synthesized aac(2′)-Ia gene cloned in pET-15b between NdeI and BamHI, N-terminal HIS-tag followed by a thrombin cleavage site; the tag was removed with thrombin; Homodimer in the crystal, each unit with acetylated plazomicin and CoA in the active site; also called aminoglycoside 2′-N-acetyltransferase; AAC(2′)-Ia …
  binding result: binds

Source: PMC8195987, “Structural basis for plazomicin antibiotic action and resistance” (Communications Biology, 2021)
